From patent publication US20220112288A1 (published 2022)
Residue numbers refer to the chain shown, from its start.

B1: 75110_08F20A (antibody, V domains shown)
VH: QVQLQESGPGLVKPSETLSLTCSVSGGSISTYYWSWIRQPAGKGLEWIGRICTTENTNYNPSLKSRVTMSIDSSKNQFSLKLSSVTAADTAVYYCARDLERLNYYGMDVWGQGATVTVSS
VL: DIQMTQSPSSLSASVGDRVTITCQASQDISKYLNWYQQKPGIAPKLLIYDASNLETGVPSRFSGSGSGTDFTFTISSLQPEDFATYYCQQYDSLPITFGQGTRLEIK
notes: Non-clonal AlivaMab Mouse Kappa hybridoma supernatant, captured by anti-mouse IgG Fc (human V regions, mouse Fc)
B2: 75110_08G08A (antibody, V domains shown)
VH: B1 VH
VL: B1 VL with K31N, F83I
notes: as for B1
B3: 75110_06C16A (antibody, V domains shown)
VH: QVQLQESGPGLVTPSETLSLSCTVSGGSISDYYWSWIRQPGGKGLEWIGRIYSSGSTNYNPSLKSRVTMSVDTSKNQFSLKLSSVTAADTAVYFCARDREDYYYYGMDVWGQGTTVTVSS
VL: DIQMTQSPSSLSASVGDRVTITCQASHDISNYLNWYQQKPGKAPKLLIYAASNLETGVPSRFSGSGSGTDFSFTISSLQPEDIATYYCQQYDHLPLTFGGGTKVEIK
notes: as for B1
B4: 75110_08D24A (antibody, V domains shown)
VH: B3 VH with T13K, S21T, D31G, Y32F, G41A, S53T, G55E, S56N, F94Y, D101G
VL: B1 VL with K31N, I42K, D50A, F83I
notes: as for B1
B5: 75110_06G04A (antibody, V domains shown)
VH: QVQLLESGPGLVKPSETLSLTCTVSGGSISSYYWSWIRQPAGKGLEWIGRIYISGSTNYNPSLKSRVTMSIDTSENQFSLNLSSVTAADTAVYYCARELERPYYYGMDVWGQGTTVTVSS
VL: B3 VL with H27Q, A50N, N53T, S72T, H93N, I106F
notes: as for B1
B6: 75110_06E14A (antibody, V domains shown)
VH: B3 VH with T13K, S21T, D31N, Y33F, G41A, S56N, F94Y
VL: B1 VL with K31N, I42K, D50G, N53I, S63T, F83I
notes: as for B1
B7: 75110_08M20A (antibody, V domains shown)
VH: B3 VH with G8D, T13K, S21T, D31S, G41A, S53A, F94Y, D101G
VL: B1 VL with I42K, K45N, D50A, F83I, T85A
notes: as for B1
B8: 75110_14G10A (antibody, V domains shown)
VH: EVQLVESGGGLVKPGGSLRLSCAASGFTFSSYSMNWVRQAPGKGLEWVSFISSSSSYIYYADSVKGRFTISRDNAKNSLYLQMNSLRAEDTAVYYCARERGDDYGDYEGAFDIWGQGTMVTVSS
VL: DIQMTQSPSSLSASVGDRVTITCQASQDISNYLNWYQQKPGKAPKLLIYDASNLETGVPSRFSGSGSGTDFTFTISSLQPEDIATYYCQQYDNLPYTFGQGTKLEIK
notes: as for B1
B9: 75110_05G15A (antibody, V domains shown)
VH: QVQLQESGPGLVKPSQTLSLTCTVSGGSISSGGYFWSWIRQHPGKGLEWIGCIYYSGSTYYIPSLKSRVTISVDTSKNQFSLKLRSVTAADTAVYYCARDGYDYWYFDLWGRGTLVTVSS
VL: not shown
B10: 75110_07J02A (antibody, V domains shown)
VH: EVQLVESGGGLVQPGGSLRLSCAASGFTFSSYWMSWVRQAPGKGLEWVANIKEDGSEKYYVDSVKGRFTISRDNAKNSLYLQMNSLRAEDTAVYYCARDGSYSGYGMDVWGQGTTVTVSS
VL: AIQMTQSPSSLSASVGDRVTITCRASQGIRNDLGWYQQKPGKAPKLLIYAASSLQSGVPSRFSGRGSGTDFALTISSLQPEDFATYYCLLDYNYPYTFGQGTRLEIK
notes: as for B1
B11: CD8B271 (antibody, human IgG1, kappa, V domains shown)
VH: DVQLQESGPGLVAPSQSLSITCTVSGFSLSIYSIHWVRQPPGKGLEWLGMIWGGGDTDYNSALKSRLSISKDNSESQVFLKMNSLQTDDTAMYYCARNPHYYGGTYEYFDVWGTGTTVTVSS
VL: DIQMTQTTSSLSASLGDRVTISCSASQGISNYLNWYQQKPDGTVKLLIYDTSILYSGVPSRFSGSGSGTDYSLTISNLEPEDVATYYCQQYSNLPYTFGSGTKLEIKR
notes: Full-length human IgG1, kappa; V regions recovered from mouse hybridoma
B12: CD8B312 (antibody, human IgG1, kappa, V domains shown)
VH: QVQLQQPGADLVKPGASVKLSCKASGYTFTSFWMHWVKQRPGQGLEWIGNVDPSDSQTHYNQKFKDKATLTVDKSSNTAYMQLSSLTSEDSAVYYCARSTYYRYDGPFTYWGQGTTVTVSS
VL: DIVLTQSPATLSVTPGDSVSLSCRASQSINNNLHWYQQKSHESPRLLIKYTSQSISGIPSRFSGSGSGPDFTLSINSVETEDFGMYFCQQSNSWPLTFGGGTKLEIKR
notes: as for B11
B13: CD8B240 (antibody, human IgG1, kappa)
heavy: not shown
light: DIVMTQSPATLSVTPGDRVSLSCRASQSISDFLHWYQQKSHESPRLLIKYASQSISGIPSRFSGSGSGSDFTLTINSVEPEDVGVYYCQNGHSFPYTFGSGTKLEIKRTVAAPSVFIFPPSDEQLKSGTASVVCLLNNFYPREAKVQWKVDNALQSGNSQESVTEQDSKDSTYSLSSTLTLSKADYEKHKVYACEVTHQGLSSPVTKSFNRGEC
notes: as for B11
B14: CD8B191 (antibody, human IgG1, kappa)
heavy: not shown
light: B13 light with M4L
notes: as for B11
B15: CD8B200 (antibody, human IgG1, kappa, V domains shown)
VH: EVQLQQSGAELVKPGASVKLSCKASGYTFTNYWIHWVKQRPGQGLEWIGNIDPSDSETHYNQKFKDKATLTVDKSSSTAYMQLISLTSEDSAVYYCASGLTGTGYYWGQGTTLTVSS
VL: DIQMTQTTSSLSASLGDRVTITCRASQDISPYLNWYQQKPEGTIKLLIYYTSKLHSGVPSRFSGSGSGTDYSLTISNLEQEDIATYFCQQDNTLPYTFGSGTKLELKR
notes: as for B11
B16: CD8B246 (antibody, human IgG1, kappa, V domains shown)
VH: QVQLKESGPGILKPSQTLSLTCSFSGFSLSTSGMNVGWIRQPSGKGLEWLAHIWWDDDKYYNPSLKSQLTISKDTSRNQVFLKITSVDTADTATYYCARRGNYGNYEFAYWGQGTTLTVSS
VL: B15 VL with T22S, S30R, P31N, E41D, I44V, Y50H, K53R, D91G, Y96W, S100A
notes: as for B11
B17: CD8B270 (antibody, human IgG1, kappa, V domains shown)
VH: B15 VH with E1Q, S7P, K19M, I34M, I84S
VL: B15 VL with S30R, Y50F
notes: as for B11
B18: CD8B304 (antibody, human IgG1, kappa, V domains shown)
VH: B16 VH with Q3T, L117V
VL: DIQMTQTTSSLSASLGDRVTISCRASQDIRNYLNWYQQKPDGTVKLLIYHTSRLHSGVPSRFSGSGSGTDYSLTISNLDQEDIATYFCQQGNTLPWTFGAGTKLELKR
notes: as for B11
B19: CD8B213 (antibody, human IgG1, kappa, V domains shown)
VH: EVQLQQSGPELVKPGDSMKMSCKASGYIFTDYYMDWVKQSHGKSLEWIGYIYPNNGITSYNQKFKGRATLTIDKSSSTAYMELHSLTSEDSAVYYCARSIYYDHGGGFPYWGQGTSVTVSS
VL: DIVLTQSQKFMSTSVGDRVSVTCKASQNVDKYVAWYQQKPGQSPKALIYSASYRYSGVPDRFTGSGSGTDFTLTISNVQSEDLAEYFCQQYNTYPSFGSGTKLEMKR
notes: as for B11
B20: CD8B361 (antibody, human IgG1, kappa, V domains shown)
VH: EVQLQQSGPELVKPGNSVKMSCKASGYTFTDYYMDWVKQSHGTSLEWIGYIYPNNGDTRYNQKFKDKATLTVDKSSSTAYMELHSLTSEDSAVFYCARSIYYDHGGGFPYWGQGTLVTVSA
VL: B19 VL with L4M, D30G, K31T, S76N, F87L, T93S, S96T, S99G, K102R, M105I
notes: Full-length human IgG1, kappa; V regions recovered from mouse hybridoma; also called CD8B36I
B21: CD8B364 (antibody, human IgG1, kappa, V domains shown)
VH: QVQLQQPGAELVKPGASVKLSCKASGYTFTSYWMHWVNRRPGQGLEWIGEINPSNGDSYYNEKFKRKATLTVDISSSTAYMQLSSLTSEDSAVYYCTRSMYYDGRAGAYWGQGTTVTVSS
VL: DIVLTQSPASLSVATGEKVTIRCITSTDIDDDMNWYQQKPGEPPKLLISEGNTLRPGVPSRFSSSGYGTDFVFTIENTLSEDVADYYCLQSDNMPLTFGAGTKLELKR
notes: as for B11
B22: CD8B303 (antibody, human IgG1, kappa, V domains shown)
VH: QVQLKESGPGLVAPSQSLSITCTVSGFSLSIYSIHWVRQPPGKGLEWLGMIWGGGSTDYNSTLNSRLSIIKDNSKSQVFLKMNSLQTDDTAMYYCARNPHHYGGSTGAMDYWGQGTTVTVSS
VL: DVQMIQSPSSLSASLGGTVTITCKASQDIKKYMAWYQHKPGKGPRLLIHYTSSLQPGIPSRFSGSGSGRDYYFSISNLEPEDIATYFCLQYDNLFTFGSGTKLELKR
notes: as for B11
B23: CD8B268 (antibody, human IgG1, kappa, V domains shown)
VH: QVQLQQSGAELVKPGASVKLSCKASGYTFTVYTIHWVKQRSGQGLEWIGWFYPGSGNIKYNEKFKDKATLTADKSSHTVYMELSRLTSEDSAVYFCARHEDNHYYDGNSWFAYWGQGTLVTVSA
VL: DIQMTQSPASLSASVGQTVTITCRASGNIHNYLAWFQQKQGKSPQLLVYNAKTLADGVPSRFSGSGSGTQYSLKINSLQTEDFGNYYCQHFWNTPYTFGGGTKLEIKR
notes: as for B11
B24: CD8B273 (antibody, human IgG1, kappa, V domains shown)
VH: B23 VH with V31E, S55T, N57S, R85K
VL: B23 VL with Q17E, T80A, N85S, N93S, G100S
notes: as for B11

Molecular target: T1, Recombinant human CD4 (R&D Systems, Cat. 10327-CD) (human, UniProt P01730 26-390, limits assumed)
T1 construct: Bought soluble recombinant protein used as analyte at 100 nM; also called huCD4
Test: BLI (Octet Red384), non-clonal supernatant on AMC sensor, 100 nM human CD4, 1:1 local fit;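 note: hybridoma antibodies captured from supernatant, single CD4 concentration as analyte, association and dissociation phases fitted together, giving single-point kinetic estimates per supernatant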

Kd | koff | kon | Binder
1.9 nM | 0.00026 s⁻¹ | 140000 M⁻¹ s⁻¹ | B1
3.4 nM | 0.00096 s⁻¹ | 280000 M⁻¹ s⁻¹ | B2
9.7 nM | 0.0024 s⁻¹ | 250000 M⁻¹ s⁻¹ | B3
34 nM | 0.006 s⁻¹ | 170000 M⁻¹ s⁻¹ | B4
14 nM | 0.001 s⁻¹ | 75000 M⁻¹ s⁻¹ | B5
12 nM | 0.002 s⁻¹ | 170000 M⁻¹ s⁻¹ | B6
3.6 nM | 0.00053 s⁻¹ | 150000 M⁻¹ s⁻¹ | B7
< 0.001 nM | < 1e-07 s⁻¹ | 78800 M⁻¹ s⁻¹ | B8
< 0.001 nM | < 1e-07 s⁻¹ | 78000 M⁻¹ s⁻¹ | B9
0.56 nM | 3.83e-05 s⁻¹ | 68400 M⁻¹ s⁻¹ | B10

Molecular target: T2, human CD8 on human pan T cells (CD4-negative population) (human, UniProt P01732 22-235; P10966 22-210)
T2 construct: whole, on cells; Endogenous CD8 on primary human pan T cells, read in the CD4-negative gate; also called CD8α/β
Test: flow cytometry, 20 nM antibody on human pan T cells, A647 anti-human IgG Fc; geomean ratio in CD4-negative population

T2 sequence (P01732 22-235, chain 1 of 2): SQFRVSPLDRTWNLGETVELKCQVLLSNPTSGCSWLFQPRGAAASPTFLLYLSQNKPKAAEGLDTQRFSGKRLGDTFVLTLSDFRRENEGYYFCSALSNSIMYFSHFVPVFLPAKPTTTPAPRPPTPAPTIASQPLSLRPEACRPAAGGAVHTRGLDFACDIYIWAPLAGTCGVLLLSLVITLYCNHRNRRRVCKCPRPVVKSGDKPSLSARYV
T2 sequence (P10966 22-210, chain 2 of 2): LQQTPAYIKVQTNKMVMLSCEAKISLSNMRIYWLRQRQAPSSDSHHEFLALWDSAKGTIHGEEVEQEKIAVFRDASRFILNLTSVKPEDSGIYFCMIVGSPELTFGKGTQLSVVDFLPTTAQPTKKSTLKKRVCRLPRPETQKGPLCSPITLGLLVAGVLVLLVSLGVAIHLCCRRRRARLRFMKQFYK

Cell Binding to Human PanT Signal/Background (of CD4 negative population) | Binder
911 | B11
1090 | B12
1310 | B13
2440 | B14
1990 | B15
1110 | B16
2500 | B17
923 | B18
827 | B19
1050 | B20
1560 | B21
1180 | B22
1170 | B23
938 | B24

Molecular target: T1, Recombinant human CD4 (R&D Systems, …)
Test: BLI (Octet Red384), non-clonal supernatant on AMC sensor, 100 nM human CD4

Response | Binder
0.32 | B1
0.13 | B2
0.07 | B3
0.21 | B4
0.12 | B5
0.12 | B6
0.19 | B7
0.0363 | B8
0.24 | B9
0.13 | B10
